In paper PMC10674394 (Pharmaceuticals, 2023):

Biological target: C-192 ( | human, UniProt P0CG48 1-76; P0CG48 1-76, L73P (from the printed letters 55-TLSDYNIQKESTLHLVLRPR-74), Lys63 of the acceptor ubiquitin in an isopeptide bond with the C-terminal glycine of the donor ubiquitin (Lys63-linked diubiquitin) | C-terminal glycine of the donor ubiquitin in an isopeptide bond …)
Assay: SPR; Biacore T200; C-192 immobilised on a CM5 chip by amine coupling (5 ug/mL in 10 mM sodium acetate pH 5.5, 400 RU); GLP-1R, GCGR (3.906-1000 nM) or KLB (0.195-200 nM) injected at 50 uL/min for 4 min, dissociation 10 min; 1:1 kinetic binding model
Details: both partners purified

Kd: 19.4 nM
kon: 26300 M⁻¹ s⁻¹
B1: GCGR (receptor)
chain: AQVMDFLFEKWKLYGDQCHHNLSLLPPPTELVCNRTFDKYSCWPDTPANTTANISCPWYLPWHHKVQHRFVFKRCGPDGQWVRGPRGQPWRDASQCQMDGEEIEVQKEVAK
